Results: publication PMC6994669 (Nature Communications, 2020)
Changes are numbered by the printed parent chain. Names and notes keep the numbering of the source.

T1: mouse CASK N-terminal kinase domain (residues 1–323) fused with the N-terminal His6-tag (mouse, UniProt O70589 1-323)
T1 construct: mouse CASK (calcium/calmodulin-dependent serine kinase), N-terminal kinase domain, residues 1-323; Cloned into pET21a, the same vector as the C-terminally tagged PTPδ D2-His6, yet the methods call this tag N-terminal; also called His6-CASK; N-terminal kinase domain of CASK; not shown: His6, N-terminal, kept
T1 sequence (looked up): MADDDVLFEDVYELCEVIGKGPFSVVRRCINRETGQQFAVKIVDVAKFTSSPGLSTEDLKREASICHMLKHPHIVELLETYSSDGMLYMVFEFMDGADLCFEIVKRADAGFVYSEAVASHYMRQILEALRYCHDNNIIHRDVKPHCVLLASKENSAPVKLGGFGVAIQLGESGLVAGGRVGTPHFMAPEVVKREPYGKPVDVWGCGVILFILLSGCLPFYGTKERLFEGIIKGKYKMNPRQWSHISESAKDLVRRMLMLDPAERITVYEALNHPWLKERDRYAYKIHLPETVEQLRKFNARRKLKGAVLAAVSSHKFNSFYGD

B1: mouse Liprin-α3 tSAM (residues 808–1114) (domain or fragment)
chain: not shown
notes: mouse Liprin-α3, tandem SAM domain (αN, SAM1-SAM3), residues 808-1114; also called WT; source: E. coli Rosetta (DE3), purified (Glutathione Sepharose, Resource Q, GST cleaved off by HRV3c protease, Superdex 200); not shown: GST, N-terminal, cleaved
B2: PTPδ D2-His6 Y1506A (domain or fragment)
chain: NTEVPARNLYAYIQKLTQIETGENVTGMELEFKRLASSKAHTSRFISANLPCNKFKNRLVNIMPYESTRVCLQPIRGVEGSDYINASFLDGYRQQKAYIATQGPLAETTEDFWRMLWEHNSTIVVMLTKLREMGREKCHQYWPAERSARYQYFVVDPMAEYNMPQYILREFKVTDARDGQSRTVRQFQFTDWPEQGVPKSGEGFIDFIGQVHKTKEQFGQDGPISVHCSAGVGRTGVFITLSIVLERMRYEGVVDIFQTVKMLRTQRPAMVQTEDQYQFCYRAALEYLGSFDHAAT
B3: PTPδ D2-His6 L1380A (domain or fragment)
chain: B2 chain with L168A, A294Y
B4: PTPδ D2-His6 D1504A (domain or fragment)
chain: B2 chain with D292A, A294Y
B5: PTPδ D2-His6 F1399A (domain or fragment)
chain: B2 chain with F187A, A294Y

How the values were obtained:
[1] = target: T1, mouse CASK N-terminal kinase domain …; assay: pull-down; GST pull-down (Fig. 5c): Liprin-α3 tSAM and/or His6-CASK mixed with GST-PTPδ D2 at equimolar ratio (20 µM) in PBS with 0.1% Triton X-100, then immobilised on Glutathione Sepharose FF; eluted with glutathione; SDS-PAGE, Coomassie; settings: both partners purified
[2] = target: B1; assay: SPR; Biacore T200, 25 °C, 10 mM Hepes-NaOH pH 7.5, 150 mM NaCl, 0.005% Tween-20; wild-type or mutant PTPδ D2-His6 amine-coupled on a CM5 chip; wild-type or mutant Liprin-α3 tSAM injected, twofold dilutions from 40 µM to 39 nM; equilibrium KD; settings: both partners purified

binding result [1]	Kd [2]	Binder
binds	–	B1
–	11.4 µM	B2
–	> 40 µM	B3
–	18 µM	B4
–	32 µM	B5
